Reference: US20250206841A1 (ADEPT THERAPEUTICS, published 2025)

T1: human Trop-2-His protein (human, UniProt P09758 27-274)
T1 construct: extracellular domain; Assay paragraphs say only 'Trop-2-His'; also called hTrop-2; Kactus Cat #TRP-HM121; not shown: His tag
T1 sequence (looked up): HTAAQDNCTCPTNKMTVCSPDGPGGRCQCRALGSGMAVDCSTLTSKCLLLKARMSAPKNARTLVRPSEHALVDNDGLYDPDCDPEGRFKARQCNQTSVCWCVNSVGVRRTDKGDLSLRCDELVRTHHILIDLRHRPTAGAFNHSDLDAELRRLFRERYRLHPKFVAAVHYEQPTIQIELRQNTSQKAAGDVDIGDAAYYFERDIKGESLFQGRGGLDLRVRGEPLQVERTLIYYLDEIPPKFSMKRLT

T2: cynomolgus Trop-2-His protein (cynomolgus, UniProt P09758 27-274 (human entry))
T2 construct: also called cynmolgus Trop-His; Kactus Cat #TRP-CM121; not shown: His tag
T2 chain: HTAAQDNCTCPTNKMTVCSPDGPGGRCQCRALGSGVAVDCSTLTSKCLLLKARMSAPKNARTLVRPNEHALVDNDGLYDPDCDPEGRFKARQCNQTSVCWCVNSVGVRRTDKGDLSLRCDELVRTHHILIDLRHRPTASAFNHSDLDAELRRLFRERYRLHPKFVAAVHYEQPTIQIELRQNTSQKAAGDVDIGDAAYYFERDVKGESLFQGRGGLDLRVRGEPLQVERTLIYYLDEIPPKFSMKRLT


Key:
human Trop-2-His protein = target: T1, human Trop-2-His protein; experiment: BLI (Gator Prime), LEM supernatant Ab on HFC probe
Procedure: (§1) After three times of regeneration and neutralization of HFC probe (Gator, Cat #160003), LEM transfection supernatant samples to be tested in K buffer was diluted 1:1 in K buffer and immobilized onto HFC probe. […] The association and dissociation of human or cynomolgus Trop-2-His antigen from antibody was measured on BLI machine Gator Prime. Affinity was calculated using Gator Bio analysis software. Blank control was used for reference subtraction. 1 μg/ml of Sacituzumab govitecan was used as positive control.
(§2) Table 23 below summarizes the binding affinity of exemplary anti-Trop-2 antibodies in LEM transfection supernatant samples to human and cynomolgus Trop-2 using Gator.

[1] = target: T2, cynomolgus Trop-2-His protein; experiment: BLI (Gator Prime), LEM supernatant Ab on HFC probe
Procedure: as §1, §2

Binder	Kd (human Trop-2-His protein) [nM]	koff (human Trop-2-His protein) [s⁻¹]	kon (human Trop-2-His protein) [M⁻¹ s⁻¹]	Kd [1] [nM]	koff [1] [s⁻¹]	kon [1] [M⁻¹ s⁻¹]
62A10 (antibody, V domains shown, Rabbit-derived clone; LEM construct: VH + rabbit IgG CH1 + human IgG1 CH2-CH3) VH: QSLVESGGGLVQPEGSLTLTCKASGFDFNNYAVTWVRQAPGEGLEYIGFIGIRGHIYYANWAKGRFTISKTSSTTMTLQMTSLTVADTATYFCARGGLWTGNSYFDLWGPGTLVTVSS VL: YDMTQTPASVEVAVGGTVTINCQASESISRYLAWYQQKPGQSPKPLIYRASTLASGVPSRFQGSGSGTEYTLTISDLECADAATYYCQQGYGYSTVDNAFGGGTEVVVK	0.959	0.00051	532000	1.27	0.00092	726000
70E2 (antibody, V domains shown, Rabbit-derived clone; LEM construct: VH + rabbit IgG CH1 + human IgG1 CH2-CH3) VH: QSLEESGGGLVKPGGTLTLTCTVSGFDFSNYAMTWVRQAPGKGLEYIGFIGIRGNIYYANWAKGRFTISKTSSTTVTLQMTSLTVADTATYFCARGGLWTGNSYFDLWGPGTLVTVSS VL: YDMTQTPASVEVPVGGTVTINCQASENINRYLAWYQQKPGQPPKPLIYRAATLASGVPSRFKGSGSGTEYTLSISDLECADAATYYCQQGYGYSTVGNAFGGGTEVVVK	0.871	0.00038	430000	0.892	0.00059	657000
73C2 (antibody, V domains shown, Rabbit-derived clone; LEM construct: VH + rabbit IgG CH1 + human IgG1 CH2-CH3) VH: QSLEESGGGLVKPGGTLTLTCTVSGFDFSNYAVTWVRQAPGEGLEYIGFVGIYGDFYYANWAKGRFTISKTSSTTVTLQMPSLTVADTATYFCARGGLWTGNSYFDLWGPGTLVTVSS VL: YDMTQTPASVEVAVGGTVTINCQASESINRYLAWYQQKRGQPPKPLIYRAATLASGVPSRFKGSGSGTEYTLTISDLECADAATYYCQQGYGYSTVGNAFGGGTEVVVK	3.85	0.0011	284000	4.63	0.0017	364000
2H5 (antibody, V domains shown, Rabbit-derived clone; LEM construct: VH + rabbit IgG CH1 + human IgG1 CH2-CH3) VH: QSLEESGGDLVQPGASLTLTCKASGFDLNNYSILWVRQAPGKGLEWIGCIYFSGGSTYYANWAKGRFAISKTSSTTVTLQMTSLTAADTATYFCARDDGTTSYYLNLWGPGTLVTVSS VL: YDMTQTPASVSEPVGGTVTIKCQASEDIYNLLAWYQQKPGQPPKLLIYAASDLESGVPSRFKGSGSGTEYTLTISDLECADAATYYCQQAYTVGNIDNAFGGGTEVVVK	0.822	0.00027	331000	0.582	0.00027	460000
10E12 (antibody, V domains shown, Rabbit-derived clone; LEM construct: VH + rabbit IgG CH1 + human IgG1 CH2-CH3) VH: QSLEESGGDLVQPGASLTLTCKASGFDLNNYAMLWVRQAPGKGLEWIGCIYISGGTTYFASWATGRFAISKTSSTTVTLQMTSLTAADTATYFCARDDGTTSYYLNLWGPGTLVTVSS VL: YDMTQTPASVSAAVGGTVTIKCQASEDIYSLLAWYQQKPGQPPKLLIYDASDLASGVPSRFKGSGSGTEYTLTISDLECDDAATYYCQQAYTIGNIDNAFGGGTEVVVK	0.173	6.8e-05	391000	0.168	6.8e-05	605000
12G6 (antibody, V domains shown, Rabbit-derived clone; LEM construct: VH + rabbit IgG CH1 + human IgG1 CH2-CH3) VH: QEQLKESGGGLVQPGGSLTLSCKASGFDFNNYGVSWVRQAPGKGLEWIGYIYPAYHNTYYATWVNGRFTISSHNAQNTLYLQLNTLTAADTATYFCARDAGNTDYNFNLWGPGTLVTVSS VL: DVVMTQTPASVEVAVGGTVTIKCQASEDIESYLAWYQQKPGQPPKLLIYEASKLASGVSSRFSGGGYGTEFTLTISGVECADAATYYCQQALTIGNVDNPFGGGSEVVVK	1.22	0.00047	386000	0.911	0.00047	603000
69H10 (antibody, V domains shown, Rabbit-derived clone; LEM construct: VH + rabbit IgG CH1 + human IgG1 CH2-CH3) VH: QEQLKESGGGLVQPGGSLKLSCKASGFDFNKYGVSWVRQAPGKGLEWIAYIYPAFHNTYYATWVNGRFTISSHNAQNTLYLQLNTLTAADTATYFCARDAGTTDYNFNLWGPGTLVTVSS VL: DVVMTQTASPVSAAVGGTVTIKCQASQSIYSYLSWYQQKPGQPPKLLIYEASKLASGVSSRFSGSGYGTEFTLTISGVECADAATYYCQQALTVGNVDNPFGGGSEVVVK	0.989	0.00046	465000	0.893	0.00053	592000
9A5 (antibody, V domains shown, Rabbit-derived clone; LEM construct: VH + rabbit IgG CH1 + human IgG1 CH2-CH3) VH: QEQLKESGGGLVQPGGSLTLSCKASGFDFNNYGVSWVRQAPGKGLEWIAYIYPTYHNTYYATWVNGRFTISSHNAQNTLYLQLNTLTAADTATYFCARDAGGTDYNFNLWGPGTLVTVSS VL: DVVMTQTPASVEAAVGGTVTINCQASQSIESYLAWYQQKPGQPPKLLIYEASKLASGVSSRFSGGGYGTEFTLTISGVECADAATYYCQQALTIGNVDNPFGGGSEVVVK	0.767	0.00041	529000	0.698	0.00041	919000

The remaining binders from weak to strong by Kd (human Trop-2-His protein), led by results:

Kd (human Trop-2-His protein) [nM]	koff (human Trop-2-His protein) [s⁻¹]	kon (human Trop-2-His protein) [M⁻¹ s⁻¹]	Kd [1] [nM]	koff [1] [s⁻¹]	kon [1] [M⁻¹ s⁻¹]	Binder
0.562	0.00019	339000	0.455	0.00019	454000	10D3 (antibody, V domains shown, Rabbit-derived clone; LEM construct: VH + rabbit IgG CH1 + human IgG1 CH2-CH3) VH: QSLEESGGDLVQPGASLTLTCKAAGFDLNNYSMLWVRQAPGKGLEWIGCIYISGGTTYYASWAKGRFTISKTSSTTVTLQMTSLTAADTATYFCARDDGSTSYYLNLWGPGTLVTVSS VL: YDMTQTPASVSEPVGGTVTIKCQASEDIYRLLAWYQQKPGQPPKLLIYDASDLASGVPSRFKGSGSGTEYTLTISGLQCADAATYYCQQGYTIGNIDNSFGGGTEVVVK
0.269	0.00013	488000	0.113	0.00013	727000	2H3 (antibody, V domains shown, Rabbit-derived clone; LEM construct: VH + rabbit IgG CH1 + human IgG1 CH2-CH3) VH: QEQLKESGGGLGQPGGSLTLSCKASGFDFNNYGVSWVRQAPGKGLEWIGYIYPAYHNTYYATWVNGRFTISSHNAQNTLYLQLNTLTAADTATYFCARDTGTTDYNFNLWGPGTLVTVSS VL: DVVMTQTPASVEVAVGGTVTIKCQASEDIESYLAWYQQKPGQPPKLLIYEASKLASGVSSRFSGGGYGTEFTLTISGVECADAATYYCQQALTVGNVDNPFGGGSEVVVK
0.227	9.6e-05	423000	0.221	9.6e-05	677000	8H2 (antibody, V domains shown, Rabbit-derived clone; LEM construct: VH + rabbit IgG CH1 + human IgG1 CH2-CH3) VH: QSLEESGGDLVQPGASLTLTCKASGFDLNNYAMLWVRQAPGKGLEWIGCIYISGGTTYFASWATGRFAISKTSSTTVTLQMTSLTAADTATYFCARDDGSTSYYLNLWGPGTLVTVSS VL: YDMTQTPASVSAAVGGTVTIKCQASEDIYSLLAWYQQKPGQPPKLLIYDASDLASGVPSRFKGSGSGTEYTLTISALECDDAATYYCQQAYTIGNIDNTFGGGTEVVVK
0.173	6.8e-05	391000	≤ 0.132	~5.62e-05	426000	10F12 (antibody, V domains shown, Rabbit-derived clone; LEM construct: VH + rabbit IgG CH1 + human IgG1 CH2-CH3) VH: QSLEESGGDLVQPGASLTLTCRASGFDLNNYSMLWVRQAPGKGLEWIGCIYISGGTTYFASWATGRFAISKTSSTTVTLQMTSLTAADTATYFCARDDGSTSYYLNLWGPGTLVTVSS VL: YDMTQTPASVSAAVGGTVTIKCQASEDIYSLLAWYQQKPGQPPKLLIFDASDLASGVPSRFKGSGSGTEYTLTISDLECDDAATYYCQQAYTIGNIDNAFGGGTEVVVK
